Changes are numbered by the printed parent chain. Read-outs that look alike come from different tables or passages of the source.
B1: IL6R-P631/IL6R-L (antibody)
chain 1: QVQLQESGPGLVKPSETLSLTCAVSGHSISHDHAWSWVRQPPGEGLEWIGFISYSGITNYNPSLQGRVTISRDNSKNTLYLQMNSLRAEDTAVYYCARSLARTTAMDYWGEGTLVTVSSASTKGPSVFPLAPSSKSTSGGTAALGCLVKDYFPEPVTVSWNSGALTSGVHTFPAVLQSSGLYSLSSVVTVPSSSLGTQTYICNVNHKPSNTKVDKKVEPKSCDKTHTCPPCPAPDLLGGDSVFLFPPKPKDTLMISRTPEVTCVVINVAEEDGEVKFNWYVDGVEVHNAKTKPREEQYNSTYRVVSVLTVLHQDWLNGKEYKCKVSNKALPAPIEKTISKAKGQPREPQVYTLPPSRDELTKNQVSLTCLVKGFYPSDIAVEWESNGQPENNYKTTPPVLDSDGSFFLYSKLTVDKSRWQQGNVFSCSVMHEALHNHYTQKSLSLSP
chain 2: not shown
B2: IL6R-P652/IL6R-L (antibody)
chain 1: B1 chain 1 with G239D, N267D, A269Y, Y298D, A332R, P398M
chain 2: not shown
B3: IL6R-P693/IL6R-L (antibody)
chain 1: B1 chain 1 with D235E, I266V, N267D, A269S, E270H, G273P, Y298E, S300A
chain 2: not shown
B4: IL6R-P659/IL6R-L (antibody)
chain 1: B1 chain 1 with D235E, G239Q, F243M, I266V, N267D, A269S, E270H, G273P, Y298E
chain 2: not shown
B5: IL6R-P735/IL6R-L (antibody)
chain 1: QVQLQESGPGLVKPSETLSLTCAVSGHSISHDHAWSWVRQPPGEGLEWIGFISYSGITNYNPSLQGRVTISRDNSKNTLYLQMNSLRAEDTAVYYCARSLARTTAMDYWGEGTLVTVSSASTKGPSVFPLAPSSKSTSGGTAALGCLVKDYFPEPVTVSWNSGALTSGVHTFPAVLQSSGLYSLSSVVTVPSSSLGTQTYICNVNHKPSNTKVDKKVEPKSCDKTHTCPPCPAPELFGQDSVMLFPPKPKDTLMISRTPEVTCVVVDVSPEDPEVKFNWYVDGVEVHNAKTKPREEQENSTYRVVSVLTVLHQDWLNGKEYKCKVSNKALPHPIEKTISKAKGQPREPQVYTLPPSRDELTKNQVSLTCLVKGFYPSDIAVEWESNGQPENNYKTTPPVLDSDGSFFLYSKLTVDKSRWQQGNVFSCSVMHEALHNHYTQKSLSLSP
chain 2: not shown
B6: IL6R-P737/IL6R-L (antibody)
chain 1: B5 chain 1 with F237L, S326H
chain 2: not shown
B7: IL6R-P687/IL6R-L (antibody)
chain 1: B5 chain 1 with F237L, Q239G, M243F, P270H, E298Y, S300A, S326N
chain 2: not shown
B8: IL6R-P665/IL6R-L (antibody)
chain 1: B1 chain 1 with G239D, N267D, Y298D, N299A, A332R, P398M
chain 2: not shown
B9: IL6R-P657/IL6R-L (antibody)
chain 1: B5 chain 1 with F237L, Q239G, P270H, H332Y
chain 2: not shown
B10: IL6R-P658/IL6R-L (antibody)
chain 1: B5 chain 1 with Q239G, P270H, H332A
chain 2: not shown
B11: IL6R-P731/IL6R-L (antibody)
chain 1: B5 chain 1 with F237L, S326H, H332A
chain 2: not shown
B12: IL6R-P728/IL6R-L (antibody)
chain 1: B5 chain 1 with P270H, S326H, H332A
chain 2: not shown
B13: IL6R-P629/IL6R-L (antibody)
chain 1: B1 chain 1 with G239K, N267D
chain 2: not shown
B14: IL6R-P605/IL6R-L (antibody)
chain 1: B5 chain 1 with F237L, Q239G, M243F, P270H, E298D, S300A, H332A
chain 2: not shown
B15: IL6R-P626/IL6R-L (antibody)
chain 1: B1 chain 1 with L236R, N267D
chain 2: not shown
B16: IL6R-P603/IL6R-L (antibody)
chain 1: B5 chain 1 with F237L, Q239G, P270H, V325I, H332A
chain 2: not shown
B17: IL6R-P726/IL6R-L (antibody)
chain 1: B5 chain 1 with F237L, P270H, S326H
chain 2: not shown
B18: IL6R-P655/IL6R-L (antibody)
chain 1: B5 chain 1 with F237L, Q239G, P270H, S326H, H332A
chain 2: not shown
B19: IL6R-P636/IL6R-L (antibody)
chain 1: B1 chain 1 with N267D, A269R
chain 2: not shown
B20: IL6R-P660/IL6R-L (antibody)
chain 1: B1 chain 1 with D235E, I266V, N267D, A269S, E270H, G273P, S300A, S326N
chain 2: not shown
B21: IL6R-P591/IL6R-L (antibody)
chain 1: B5 chain 1 with F237L, Q239G, P270H, H332A
chain 2: not shown
B22: IL6R-P691/IL6R-L (antibody)
chain 1: B5 chain 1 with P270H, H332A
chain 2: not shown
B23: IL6R-P690/IL6R-L (antibody)
chain 1: B5 chain 1 with F237L, P270H
chain 2: not shown
B24: IL6R-P732/IL6R-L (antibody)
chain 1: B5 chain 1 with Q239G, S326H, H332A
chain 2: not shown
B25: IL6R-P734/IL6R-L (antibody)
chain 1: B5 chain 1 with P270H, S326H
chain 2: not shown
B26: IL6R-P727/IL6R-L (antibody)
chain 1: B5 chain 1 with F237L
chain 2: not shown
B27: IL6R-P733/IL6R-L (antibody)
chain 1: B5 chain 1 with S326H, H332A
chain 2: not shown
B28: IL6R-P653/IL6R-L (antibody)
chain 1: B5 chain 1 with F237L, Q239G, H332A
chain 2: not shown
B29: IL6R-P661/IL6R-L (antibody)
chain 1: B5 chain 1 with F237L, Q239G, M243F, P270H, E298Y, S300A
chain 2: not shown

Legend:
Assay in all cases: SPR
FcgRIa [1] = target: T1, FcgRIa (human, UniProt P12314)
T1 chain: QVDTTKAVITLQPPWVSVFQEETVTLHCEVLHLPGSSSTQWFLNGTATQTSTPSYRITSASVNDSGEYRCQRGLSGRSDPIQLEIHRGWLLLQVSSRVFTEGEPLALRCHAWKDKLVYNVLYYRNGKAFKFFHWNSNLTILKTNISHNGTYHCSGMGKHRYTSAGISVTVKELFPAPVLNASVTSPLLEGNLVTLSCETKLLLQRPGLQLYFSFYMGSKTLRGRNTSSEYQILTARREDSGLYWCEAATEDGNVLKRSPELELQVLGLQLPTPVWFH

FcgRIIaR [2] = target: T2, FcgRIIaR (human, UniProt P12318)
T2 chain: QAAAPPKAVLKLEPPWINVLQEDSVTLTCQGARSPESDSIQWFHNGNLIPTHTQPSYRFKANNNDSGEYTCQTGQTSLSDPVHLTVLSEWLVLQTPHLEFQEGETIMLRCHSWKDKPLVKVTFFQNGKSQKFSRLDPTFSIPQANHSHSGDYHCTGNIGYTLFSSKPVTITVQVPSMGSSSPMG

FcgRIIIaV [3] = target: T3, FcgRIIIaV (human, UniProt P08637)
FcgRIIb [4] = target: T4, FcgRIIb (human, UniProt P31994)
T4 chain: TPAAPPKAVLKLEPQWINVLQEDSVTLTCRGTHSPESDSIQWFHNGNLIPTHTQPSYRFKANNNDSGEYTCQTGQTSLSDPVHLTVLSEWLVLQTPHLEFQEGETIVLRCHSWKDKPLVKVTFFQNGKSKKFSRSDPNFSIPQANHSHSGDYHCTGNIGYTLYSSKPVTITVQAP

FcgRIIaH [5] = target: T5, FcgRIIaH (human, UniProt P12318)
T5 chain: T2 chain with R134H

FcgRIIaH [6] = target: T5, FcgRIIaH
FcgRIIb [7] = target: T4, FcgRIIb
FcgRIIaR [8] = target: T2, FcgRIIaR
FcgRIa [9] = target: T1, FcgRIa
FcgRIIIaV [10] = target: T3, FcgRIIIaV; remark: listed apart in the source

T3 sequence (P08637 17-208 F176V): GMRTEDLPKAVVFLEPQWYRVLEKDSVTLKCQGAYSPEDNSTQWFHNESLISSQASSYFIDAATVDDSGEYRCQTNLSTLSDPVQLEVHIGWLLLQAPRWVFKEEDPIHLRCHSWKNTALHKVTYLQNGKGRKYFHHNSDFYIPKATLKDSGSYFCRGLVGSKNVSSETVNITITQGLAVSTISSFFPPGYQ

| Binder | Kd (FcgRIa [1]) [µM] | Kd (FcgRIIaR [2]) [µM] | Kd (FcgRIIIaV [3]) [µM] | Kd (FcgRIIb [4]) [µM] | Kd (FcgRIIaH [5]) [µM] | Kd (FcgRIIaH [6]) [µM] | Kd (FcgRIIb [7]) [µM] | Kd (FcgRIIaR [8]) [µM] | Kd (FcgRIa [9]) [µM] | Kd (FcgRIIIaV [10]) [µM] |
| --- | --- | --- | --- | --- | --- | --- | --- | --- | --- | --- |
| B1 | 0.011 | 26 | 47 | 4.4 | 96 | – | – | – | – | – |
| B2 | 0.72 | 24 | 72 | 1.2 | 170 | – | – | – | – | – |
| B3 | – | – | – | – | – | 150 | 5.6 | 68 | 0.0078 | 40 |
| B4 | – | – | – | – | – | 160 | 6.4 | 85 | 0.08 | 73 |
| B5 | – | – | – | – | – | 140 | 2.3 | 59 | 0.26 | 73 |
| B6 | – | – | – | – | – | 160 | 6.4 | 120 | 0.17 | 68 |
| B7 | – | – | – | – | – | 130 | 5.1 | 81 | 0.007 | 42 |
| B8 | 1.9 | 49 | 67 | 3.2 | 450 | – | – | – | – | – |
| B9 | – | – | – | – | – | 110 | 3.1 | 47 | 0.017 | 65 |
| B10 | – | – | – | – | – | 96 | 1.4 | 33 | 0.83 | 71 |
| B11 | – | – | – | – | – | 150 | 10 | 110 | 0.068 | 53 |
| B12 | – | – | – | – | – | 81 | 3.9 | 74 | 0.58 | 50 |
| B13 | 0.0033 | 27 | 47 | 0.65 | 100 | – | – | – | – | – |
| B14 | – | – | – | – | – | 130 | 5.3 | 60 | 0.0086 | 44 |
| B15 | 0.74 | 31 | 75 | 2.7 | 200 | – | – | – | – | – |
| B16 | – | – | – | – | – | 110 | 2.7 | 47 | 0.022 | 83 |
| B17 | – | – | – | – | – | 61 | 4.1 | 66 | 0.19 | 36 |
| B18 | – | – | – | – | – | 58 | 2.7 | 42 | 0.018 | 46 |
| B19 | 0.46 | 54 | 45 | 2.9 | 170 | – | – | – | – | – |
| B20 | – | – | – | – | – | 110 | 5.3 | 50 | 0.0074 | 30 |
| B21 | – | – | – | – | – | 86 | 3.1 | 37 | 0.024 | 44 |
| B22 | – | – | – | – | – | 130 | 4.3 | 72 | 0.76 | 48 |
| B23 | – | – | – | – | – | 140 | 4 | 74 | 0.31 | 63 |
| B24 | – | – | – | – | – | 100 | 2.9 | 72 | 0.7 | 76 |
| B25 | – | – | – | – | – | 84 | 2.5 | 68 | 0.22 | 100 |
| B26 | – | – | – | – | – | 150 | 4.8 | 100 | 0.23 | 66 |
| B27 | – | – | – | – | – | 180 | 4.7 | 130 | 2.5 | 77 |
| B28 | – | – | – | – | – | 110 | 3.5 | 51 | 0.018 | 50 |
| B29 | – | – | – | – | – | 94 | 4 | 41 | 0.01 | 29 |

— patent US11267868 (dated 2022)
